# Where a chain is given by its changes, count along the chain named. Numbers in names are those of the source.
# B1: ADA2: wild-type human adenosine deaminase 2, mature form SEQ ID NO:5, homodimer (protein, listed as Homo sapiens)
# chain: IDETRAHLLLKEKMMRLGGRLVLNTKEELANERLMTLKIAEMKEAMRTLIFPPSMHFFQAKHLIERSQVFNILRMMPKGAALHLHDIGIVTMDWLVRNVTYRPHCHICFTPRGIMQFRFAHPTPRPSEKCSKWILLEDYRKRVQNVTEFDDSLLRNFTLVTQHPEVIYTNQNVVWSKFETIFFTISGLIHYAPVFRDYVFRSMQEFYEDNVLYMEIRARLLPVYELSGEHHDEEWSVKTYQEVAQKFVETHPEFIGIKIIYSDHRSKDVAVIAESIRMAMGLRIKFPTVVAGFDLVGHEDTGHSLHDYKEALMIPAKDGVKLPYFFHAGETDWQGTSIDRNILDALMLNTTRIGHGFALSKHPAVRTYSWKKDIPIEVCPISNQVLKLVSDLRNHPVATLMATGHPMVISSDDPAMFGAKGLSYDFYEVFMGIGGMKADLRTLKQLAMNSIKYSTLLESEKNTFMEIWKKRWDKFIADVATK
# modifications: ADA2 mature protein
# B2: PEG-K374D: rHuADA2-K374D (SEQ ID NO:20) PEGylated on surface exposed lysines with linear PEG-20K (conjugate)
# chain: B1 chain with K371D
# modifications: linear PEG-20K on surface lysines; human ADA2 K371D, mature numbering
# Experiments:
# [1] = Stability of ADA activity in plasma; assay type: in vitro ADME, mouse; settings: long incubation (e.g., 24 hours) in plasma
# Procedure: For therapeutic uses, such as for treatment of tumors or cancers, it is desirable to administer to the subject a dosage of ADA2 that will maintain plasma adenosine deaminase (ADA) activity for a sufficient time for therapeutic effect. […] The plasma stability of any ADA2 described herein, such as a wildtype, variant or conjugate, can be determined by measuring the changes in enzymatic activity and/or other physical properties, before and after incubation in plasma, e.g., ex vivo mammalian plasma.
# Stability can be assessed in vitro or in vivo. For example, stability can be tested after exposure to plasma for a desired length of time, which can be empirically determined or selected by a skilled artisan depending on the desired length of time. For example, the incubation time can be at least 1 hour, such as at least 2, 3, 4, 5, 10, 15, 20, 24, 30, 36, 48, 60, 72 hours or more. The protein can be directly administered systemically, such as intravenously, and activity can be assessed. In other examples, the protein can be subject to appropriate incubation conditions in vitro. In one example, the stability of ADA activity of any ADA2 provided herein can be measured after incubation at 37° C., in 25% ex vivo plasma or serum, such as human or non-human plasma or serum, for example, mouse plasma. […]
# [2] = test system: CT26 murine primary colon carcinoma; experiment: CT26 syngeneic tumor model; parameters: species or system BALB/c mice; settings: mouse
# Procedure: Exemplary of an animal tumor model that can be used to assess the effect of cancer treatment using ADA2 provided herein is the CT26 syngeneic tumor model. This model is created by subcutaneous injection of CT26 murine primary colon carcinoma (ATCC CRL-2638) cells into syngeneic BALB/c mice. The mice are staged until the tumor is established, then the agent used for treatment, such as any ADA2 provided herein or combination therapy including ADA2 treatment, are administered. Another example of an animal tumor model of pancreatic cancer involves the generation of tumors in animals using BxPC-3 pancreatic adenocarcinoma cells (see e.g. Von Hoff et al. (2011) J. Clin. Oncol., 29:4548-54). […]
# In other examples, tumor volume can be measured using an average of measurements of tumor diameter (D) obtained by caliper or ultrasound assessments. For example, tumor volume can be determined using VisualSonics Vevo 770 high-resolution ultrasound or other similar ultrasound. The volume can be determined from the formula V=D^3×π/6 (for diameter measured using calipers) or V=D^2×d×π/6 (for diameter measured using ultrasound where d is the depth or thickness). For example, caliper measurements can be made of the tumor length (l) and width (w) and tumor volume calculated as length×width^2×0.52. […] Tumor volumes can be determined by using available software (e.g., Amira 3.1 software; Mercury Computer Systems). […]
# [3] = 24 hours, 37° C.
# [4] = Distribution in normal organs of naive mice vs. CT26 tumors (IVIS); assay type: in vivo, Balb/c mice; settings: 24 hr; for (Fluorescent intensity/Tissue Weight) - Baseline: 0.5 mg/kg IV
# Procedure: To assess the distribution and elimination of administered PEG-ADA2-K374D in the tumor microenvironment or in normal organs, immunofluorescence was used to assess the presence of PEG-ADA2-K374D administered to mice. PEG-ADA2-K374D was labeled at room temperature for 60 minutes with DyLight755 Sulfydryl-Reactive Dye (DL755), a near-IR fluor, using the DyLight 755 Antibody Labeling Kit (Thermo Scientific, Rockford, Ill.). Alexa Fluor 750 (AF 750) labeled bovine serum albumin (BSA, 1 mg/mL) was purchased from (Life Technology, Carlsbad, Calif.).
# To compare the distribution in naïve mice, CT26-tumor bearing mice were generated as described above, and were intravenously administered PEG-ADA2-K374D^DL755 at 0.5 mg/kg (n=3). Separately, naïve Balb/c mice also were intravenously administered PEG-ADA2-K374D^DL755 at 0.5 mg/kg (n=4). The mice were sacrificed and transcardically perfused with heparin normal saline 24 hours post PEG-ADA2-K374D^DL755 injection. Tumors from tumor-bearing mice and organs from naïve mice were collected and imaged with IVIS image system, and DL755 signal intensity was measured with LivingImage software as described above. Signal intensity was normalized by tissue organ weight.
molecule,measurement,setting,value
B1,stability in plasma,[1],more stable than ADA1
same,tumor growth in vivo,[2],reduce tumor growth
same,activity retained in PBS/BSA control,[3],no change in activity
same,activity retained after treatment with plasma,[3]; mouse plasma,about 65%
B2,(Fluorescent intensity/Tissue Weight) - Baseline,"[4]; Bone, naive mice",1.82E+06
same,(Fluorescent intensity/Tissue Weight) - Baseline,"[4]; Brain, naive mice",2.11E+05
same,(Fluorescent intensity/Tissue Weight) - Baseline,"[4]; Colon, naive mice",9.13E+05
same,(Fluorescent intensity/Tissue Weight) - Baseline,"[4]; Heart, naive mice",5.55E+05
same,(Fluorescent intensity/Tissue Weight) - Baseline,"[4]; Kidney, naive mice",8.61E+05
same,(Fluorescent intensity/Tissue Weight) - Baseline,"[4]; Liver, naive mice",4.02E+06
same,(Fluorescent intensity/Tissue Weight) - Baseline,"[4]; Lung, naive mice",1.22E+06
same,(Fluorescent intensity/Tissue Weight) - Baseline,"[4]; Spleen, naive mice",2.98E+06
same,(Fluorescent intensity/Tissue Weight) - Baseline,"[4]; Tumor, CT26 tumor-bearing mice",6.22E+06
same,Signal Intensity (Tumor vs Organ),[4]; ratio tumor/Bone,3.4
same,Signal Intensity (Tumor vs Organ),[4]; ratio tumor/Brain,29.5
same,Signal Intensity (Tumor vs Organ),[4]; ratio tumor/Colon,6.8
same,Signal Intensity (Tumor vs Organ),[4]; ratio tumor/Heart,11.2
same,Signal Intensity (Tumor vs Organ),[4]; ratio tumor/Kidney,7.2
same,Signal Intensity (Tumor vs Organ),[4]; ratio tumor/Liver,1.5
same,Signal Intensity (Tumor vs Organ),[4]; ratio tumor/Lung,5.1
same,Signal Intensity (Tumor vs Organ),[4]; ratio tumor/Spleen,2.1
